Non-standard residues stand in square brackets, D forms with d. Sar = CNCC(=O)O
molecular target: Sushi domains (SD1/2) protein of GABAB1a (GB1a); assay: FP competition vs TAMRA AJAP-1probe
Sequence (Q9Z0U4 29-158): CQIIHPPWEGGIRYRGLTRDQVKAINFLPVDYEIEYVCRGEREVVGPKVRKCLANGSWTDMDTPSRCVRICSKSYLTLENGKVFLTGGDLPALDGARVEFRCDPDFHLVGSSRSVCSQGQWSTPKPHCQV

Binder	Ki
Ac-ETEFIAWGPTGDEN-NH2	43 nM
Ac-ETEFIAWGPTGDEP-NH2	41 nM
Ac-ETEFIAWGPTGDEQ-NH2	37 nM
Ac-ETEFIAWGPTGDEV-NH2	40 nM
Ac-ETEFIAWGPTGDEW-NH2	54 nM
Ac-VWAIVWGPTVSRED-NH2	412 nM
Ac-DWAIVWGPTVSRED-NH2	338 nM
Ac-PDAIVWGPTVSRED-NH2	673 nM
Ac-DAIVWGPTVSRED-NH2 [… (SEQ ID NO: 341)]	715 nM
Ac-DAIVWGPTVSRED-NH2 [… (SEQ ID NO: 342)]	208 nM
Ac-PHAIVWGPTVSRED-NH2	1500 nM
Ac-PSAIVWGPTVSRED-NH2	906 nM
Ac-PFAIVWGPTVSRED-NH2	792 nM
Ac-PWFIVWGPTVSRED-NH2	461 nM
Ac-PWVIVWGPTVSRED-NH2	302 nM
Ac-PWYIVWGPTVSRED-NH2	336 nM
Ac-PWFIVWGPTVSDED-NH2	192 nM
Ac-PWAIDWGPTVSRED-NH2	1300 nM
Ac-PWAIVWGPTSSRED-NH2	383 nM
Ac-PWAIVWGPTDSRED-NH2	417 nM
Ac-PWAIVWGPTVDRED-NH2	379 nM
Ac-PWAIVWGPTVSDED-NH2	327 nM
Ac-AIVWGPTVSRED-NH2	683 nM
Ac-AIVWGPTVSRED-NH2 (also: asterisk not explained)	773 nM
Ac-FIVWGPTVSRED-NH2	367 nM

Binder	Ki
Ac-FIVWGPTVSRED-NH2 (not fully specified; printed as FIVWGPTVSRED*)	503 nM
Ac-ETEFIAWGPTVSRED-NH2	148 nM
Ac-PWAIVWGPTGDED-NH2	222 nM
Ac-EDDSWVWWG[Sar]ADTD-NH2 (SMILES CC(=O)N[C@@H](CCC(=O)O)C(=O)N[C@@H](CC(=O)O)C(=O)N[C@@H](CC(=O)O)C(=O)N[C@@H](CO)C(=O)N[C@@H](Cc1c[nH]c2ccccc12)C(=O)N[C@H](C(=O)N[C@@H](Cc1c[nH]c2ccccc12)C(=O)N[C@@H](Cc1c[nH]c2ccccc12)C(=O)NCC(=O)N(C)CC(=O)N[C@@H](C)C(=O)N[C@@H](CC(=O)O)C(=O)N[C@H](C(=O)N[C@@H](CC(=O)O)C(N)=O)[C@@H](C)O)C(C)C)	36 nM
Ac-EDDSDVWWGPTGDED-NH2 [hybrid peptide X]	62 nM
Ac-ETEFIAWGGADTD-NH2 [hybrid peptide Y]	345 nM
Ac-ETEFIAWYGADTD-NH2 [peptide 37]	95 nM
Ac-ETEFIAWYPADTD-NH2	190 nM
Ac-ETEFIAWYGPADTD-NH2	182 nM
Ac-ETEFIAWYGPTGDED-NH2	195 nM
Ac-ETEFIAWG[Sar]TGDED-NH2 (SMILES CC[C@H](C)[C@H](NC(=O)[C@H](Cc1ccccc1)NC(=O)[C@H](CCC(=O)O)NC(=O)[C@@H](NC(=O)[C@H](CCC(=O)O)NC(C)=O)[C@@H](C)O)C(=O)N[C@@H](C)C(=O)N[C@@H](Cc1c[nH]c2ccccc12)C(=O)NCC(=O)N(C)CC(=O)N[C@H](C(=O)NCC(=O)N[C@@H](CC(=O)O)C(=O)N[C@@H](CCC(=O)O)C(=O)N[C@@H](CC(=O)O)C(N)=O)[C@@H](C)O) [peptide 38]	32 nM
Ac-EDDSDVWWY[Sar]ADTD-NH2 (SMILES CC(=O)N[C@@H](CCC(=O)O)C(=O)N[C@@H](CC(=O)O)C(=O)N[C@@H](CC(=O)O)C(=O)N[C@@H](CO)C(=O)N[C@@H](CC(=O)O)C(=O)N[C@H](C(=O)N[C@@H](Cc1c[nH]c2ccccc12)C(=O)N[C@@H](Cc1c[nH]c2ccccc12)C(=O)N[C@@H](Cc1ccc(O)cc1)C(=O)N(C)CC(=O)N[C@@H](C)C(=O)N[C@@H](CC(=O)O)C(=O)N[C@H](C(=O)N[C@@H](CC(=O)O)C(N)=O)[C@@H](C)O)C(C)C)	201 nM
Ac-EDDSDVWWYG[Sar]ADTD-NH2 (SMILES CC(=O)N[C@@H](CCC(=O)O)C(=O)N[C@@H](CC(=O)O)C(=O)N[C@@H](CC(=O)O)C(=O)N[C@@H](CO)C(=O)N[C@@H](CC(=O)O)C(=O)N[C@H](C(=O)N[C@@H](Cc1c[nH]c2ccccc12)C(=O)N[C@@H](Cc1c[nH]c2ccccc12)C(=O)N[C@@H](Cc1ccc(O)cc1)C(=O)NCC(=O)N(C)CC(=O)N[C@@H](C)C(=O)N[C@@H](CC(=O)O)C(=O)N[C@H](C(=O)N[C@@H](CC(=O)O)C(N)=O)[C@@H](C)O)C(C)C)	164 nM
Ac-EDDSDVWWY[Sar]TGDED-NH2 (SMILES CC(=O)N[C@@H](CCC(=O)O)C(=O)N[C@@H](CC(=O)O)C(=O)N[C@@H](CC(=O)O)C(=O)N[C@@H](CO)C(=O)N[C@@H](CC(=O)O)C(=O)N[C@H](C(=O)N[C@@H](Cc1c[nH]c2ccccc12)C(=O)N[C@@H](Cc1c[nH]c2ccccc12)C(=O)N[C@@H](Cc1ccc(O)cc1)C(=O)N(C)CC(=O)N[C@H](C(=O)NCC(=O)N[C@@H](CC(=O)O)C(=O)N[C@@H](CCC(=O)O)C(=O)N[C@@H](CC(=O)O)C(N)=O)[C@@H](C)O)C(C)C)	142 nM
Ac-EDDSDVWWYG[Sar]TGDED-NH2 (SMILES CC(=O)N[C@@H](CCC(=O)O)C(=O)N[C@@H](CC(=O)O)C(=O)N[C@@H](CC(=O)O)C(=O)N[C@@H](CO)C(=O)N[C@@H](CC(=O)O)C(=O)N[C@H](C(=O)N[C@@H](Cc1c[nH]c2ccccc12)C(=O)N[C@@H](Cc1c[nH]c2ccccc12)C(=O)N[C@@H](Cc1ccc(O)cc1)C(=O)NCC(=O)N(C)CC(=O)N[C@H](C(=O)NCC(=O)N[C@@H](CC(=O)O)C(=O)N[C@@H](CCC(=O)O)C(=O)N[C@@H](CC(=O)O)C(N)=O)[C@@H](C)O)C(C)C)	138 nM
Ac-EDDSWIWWYGADTD-NH2 [peptide 28]	18 nM
Ac-EDDSWIWWGPTGDED-NH2 [peptide 27]	16 nM
Ac-EDDSWIDWYGADTD-NH2 [peptide 30]	11 nM
Ac-EDDSWIDWGPTGDED-NH2 [peptide 29]	5.6 nM
Ac-EDDDWIDWYDSDDD-NH2 [peptide 16]	3.2 nM
Ac-EDDDWIDWGPTSDDD-NH2 [peptide 17]	4 nM
Ac-EDDYIDWYDSDDD-NH2 [peptide 18]	4.6 nM
Ac-EDDYIDWGPTSDDD-NH2 [peptide 19]	3.8 nM
Ac-RRRRRRRREDDDWIDWYDSDDD-NH2 [R8-16]	107 nM
Ac-EDDDWIDWYDSDDDRRRRRRRR-NH2 [16-R8]	65.3 nM
